Data: PMC3912051, “The B-Subdomain of the Xenopus laevis XFIN KRAB-AB Domain Is Responsible for Its Weaker Transcriptional Repressor Activity Compared to Human ZNF10/Kox1” (PLoS ONE, 2014)

Molecular target: TRIM28 (endogenous human TRIM28 protein) (human (endogenous in HeLa), UniProt Q13263 1-835)
Assay: cell-based or functional assay

TRIM28 (endogenous human TRIM28 protein), sequence (Q13263 whole entry): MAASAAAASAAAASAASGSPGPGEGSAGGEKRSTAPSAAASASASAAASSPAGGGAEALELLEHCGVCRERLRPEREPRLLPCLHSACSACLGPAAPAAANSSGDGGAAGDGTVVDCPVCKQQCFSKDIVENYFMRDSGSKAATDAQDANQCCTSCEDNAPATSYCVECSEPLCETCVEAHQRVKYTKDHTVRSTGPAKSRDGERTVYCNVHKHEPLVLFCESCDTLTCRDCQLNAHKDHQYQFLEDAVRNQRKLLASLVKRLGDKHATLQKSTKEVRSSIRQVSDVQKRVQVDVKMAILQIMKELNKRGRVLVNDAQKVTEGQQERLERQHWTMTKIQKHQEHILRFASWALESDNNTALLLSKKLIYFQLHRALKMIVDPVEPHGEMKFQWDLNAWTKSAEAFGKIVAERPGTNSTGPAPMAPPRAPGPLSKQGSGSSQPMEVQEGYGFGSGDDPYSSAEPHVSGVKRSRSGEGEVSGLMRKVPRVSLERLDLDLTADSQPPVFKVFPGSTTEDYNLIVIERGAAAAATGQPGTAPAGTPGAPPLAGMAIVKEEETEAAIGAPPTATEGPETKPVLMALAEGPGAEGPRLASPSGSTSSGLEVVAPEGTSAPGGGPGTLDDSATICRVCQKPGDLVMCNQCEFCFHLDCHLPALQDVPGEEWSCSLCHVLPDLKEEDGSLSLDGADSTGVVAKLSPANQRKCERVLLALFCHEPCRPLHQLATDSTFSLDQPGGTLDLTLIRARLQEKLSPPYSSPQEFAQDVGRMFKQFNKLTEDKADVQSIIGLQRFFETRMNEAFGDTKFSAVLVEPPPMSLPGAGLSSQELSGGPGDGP

fold repression of a Gal4-site luciferase reporter by Gal4-ZNF10-KRAB-AB in EPC fish cells with co-transfected human TRIM28 (negligible without it): ~2 fold
B1: GST-ZNF10-KRAB-AB (KRAB-AB domain of human ZNF10/Kox1 fused to glutathione S-transferase) (domain or fragment)
chain: not shown
